According to patent US20210253725A1 (BIONTECH, published 2021):

B1: P018.S.12.A.D04 (antibody, V domains shown)
VH: QSVEESGGRLVTPGTPLTLTCTVSGIDLSSYAMGWVRQAPGKGLEYIGIISYDGSTYYASWAKGRFTISKTSTTVDLKITSPTTEDTATYFCARVDYGDYNFALWGQGTLVTVSS
VL: DVVMTQTPASVSEVVGGTVTIKCQASESISNYLAWYQQKPGQPPKLLIYAASNLASGVPSRFSGSGSGTQFTLTISDLESADAATYYCQCTYYVSSYFAFSGGTEVVVK
notes: V regions on human Ig constant parts; also called AB134_69
B2: P018.S.12.A.B02 (antibody, V domains shown)
VH: QSLEESGGRLVTPGTPLTLTCTVSGIDLSKYTMTWVRQAPGKGLEWIGLISFGGRGGTWYANWAKGRFTISKTSTTVDLRIASPTTEDTATYFCARARYSGTNYDYFNLWGQGTLVTVSS
VL: AYDMTQTPASVEVAVGGTVTIKCQASQSISNWLAWYQQKPGQRPKLLIYGASNLESGVPSRFKGSGSGTDFTLTISDLESADAATYYCQQGYSSDGVTNAFGGGTEVVVE
notes: V regions on human Ig constant parts; also called AB134_57
B3: P018.S.12.A.F04 (antibody, V domains shown)
VH: QQQLEESGGGLVKPGGTLTLTCTASGIDFSSYWMWWVRQPPGKGLEWVACIYNGDGSTYYASWAKGRFTISKTSSTTVTLQMTSLTAADTATYFCARDFHLWGPGTLVTVSS
VL: AQVLTQTASPVSAAVGSTVTINCQASQNIYKNNYLSWYQQKPGQPPKGLIYSASTLDSGVPLRFSGSGSGTKFTLTISDVQSDDAATYYCLGSVACSGPDCIVFGGGTEVVVK
notes: V regions on human Ig constant parts; also called AB134_80
B4: P018.S.12.A.H01 (antibody, V domains shown)
VH: QSVEESGGRLVTPGTPLTLTCTVSGFSLSSYAMSWVRQAPGKGLEWIGDINSYATTYYASWAKGRFTISKTSTTVDLKLTSPTTEDTATYFCAREAGYADLWGQGTLVTVSS
VL: AYDMTQTPASVEVAVGGTVTIKCQASQSISRYLSWYQQEPGQRPKLLIYEASTLASGVSSRFKGSGSGTQFTLTISGVESADAATYYCQQDYDSTDVGNTFGGGTEVVVK
notes: V regions on human Ig constant parts; also called AB134_88
B5: P018.S.12.A.C04 (antibody, V domains shown)
VH: QSLEESGGRLVTPGGSLTLTCTVSGIDLSRWTMSWVRQAPGKGLEWIGLIYASDDTVYASWAKGRFTISKTSTTVDLKITSPTTEDTATYFCVRVYGSTSGYYDLWGQGTLVTVSS
VL: DVVMTQTPASVSEPVGGTVTIKCQASQSISNWLAWYQQKPGQPPKLLIYYASTLASGVPSRFKGSGSGTQFTLTISDLESADAATYYCQNFGDGNSIGHAFGGGTEVVVK
notes: V regions on human Ig constant parts; also called AB134_64
B6: P018.S.11.A.F03 (antibody, V domains shown)
VH: QEQLVESGGGLVQPEGSLTLTCKASGFDFNNNAMCWVRQAPGKGLEWIACIYDGSSGSTYYASWAKGRFTISKTSSSTVTLQMTSLTAADTATYFCARAYAAYTVYDYAFNLWGPGTLVTVSS
VL: DVVMTQTPASVSEPVGGTVTIKCQASQSIGSDLAWYQQKPGQPPKLLIYYTTNLETGVSSRFKGSGSGTQFTLTISDLESADAATYYCQYADRSSYSFGGGTEVVVK
notes: V regions on human Ig constant parts; also called AB134_39
B7: P018.S.11.A.H06 (antibody, V domains shown)
VH: QSLEESGGRLVTPGTPLTLTCTVSGFSLSTYAMIWVRQAPGEGPEWIGLIAGGGNTWYASWAKGRFTISKTSTTVDLKITSPTTEDTATYFCARADYLGYGNNFWGQGTLVTVSS
VL: AAVLTQTPSPVSAAVGGTVTINCQASQSVYNNNYLAWYQQKPGQPPKLLIYWASNLASGVPSRFSGSGSGTQFSLTISGVQSDDAATYYCLGVYDDDADNGFGGGTEVVVK
notes: V regions on human Ig constant parts; also called AB134_49
B8: P018.S.11.A.E04 (antibody, V domains shown)
VH: QSVEESGGRLVTPGTPLTLTCTVSGFSLNDYAMSWVRQAPGKGLEWIGSIYTSGTPYYATWAKGRFTISKTSTTVDLKITSPTTEDTATYFCARQSGIDNYWLFTLWGQGTLVCVSS
VL: AYDMTQTPASVEVGVGGTVTIKCQASESIASGLAWYQQKPGQRPKLLIYSASSLASGVSSRFKGSGSGTQFTLTISDLESADAANYYCQQGYTSTNLHNVFGGGTEVVVK
notes: V regions on human Ig constant parts; also called AB134_35
B9: P018.S.12.A.E06 (antibody, V domains shown)
VH: QSVEESGGRLVTPGTPLTLTCTVSGFSLSNYHMCWVRRAPGKGLEWIGSITTADETTHYANWAKGRFTISETSTTVDLRITSPTTEDTAIYFCGRTIRYDDYAVDLWGPGTLVTVSS
VL: DLVMTQTPASMSEPVGGTVTIKCQASESVGGYLAWYQQKAGQRPKLLIYAAGNLASGVPSRFKGSGSGTEYTLTISDLESADAATYYCQCTYFDSSYVGFGGGTEVVVR
notes: V regions on human Ig constant parts; also called AB134_77
B10: P018.S.11.A.D06 (antibody, V domains shown)
VH: QSLEESGGRLVKPGESLTLTCTVSEFSLSSNAMGWVRQAPGKGLEFIGLIDSGGDAYYATWAKGRFTISKTSSTTVDLKATSLTTEDTATYFCGRGYWFPRLGLWGQGTLVTVSS
VL: AAVLTQTPSPVSAAVGGTVSINCQSTKNVYLNNWLGWFQKKPGQPPKLLIYDASTLASGVPSRFKGSGSGTEFTLTISDLESDDAATYYCAGAYDDNSDHTFGGGTEVVVK
notes: V regions on human Ig constant parts; also called AB134_32
B11: P018.S.12.A.A03 (antibody, V domains shown)
VH: LEQSAGGAEGGLVKPGGSLELCCKASGFSLNNNYWICWVRQAPGKGLEWIGCIYVGVVSLTYSASWVNGRFTLSKDIDQSTGCLQLNSLTAADTAMYYCARSLYSGYAGYGDGYYGMDLWGPGTLVTVSS
VL: GVVMTQTPASVSDPVGGTVTIKCQASQSIGSDLAWYQQKPGQPPKLLIYAASNLASGVSSRFSGIRSGTEFTLTISDLESADAATYYCQCTDYVDSHDTFGGGTEVVVK
notes: V regions on human Ig constant parts; also called AB134_52
B12: P018.S.12.A.G01 (antibody, V domains shown)
VH: QSVEESGGRLVTPGTPLTLTCTVSGFSLSSSTMGWFRQAPGKGLEWIGVIYTDGDTYYARWAKGRFTISKTSTTINLSITSPTSEDTATYFCARRANGYDDFDPWGPGTLVTVSS
VL: AYDMTQTPASVEVAVGGTVTIKCQASESISSYLNWYQQKPGQPPKLLIYYESYLASGVPSRFKGSGSGTEYTLTISGVESADAATYYCQQGFSYINVDNTFGGGTEVVVK
notes: V regions on human Ig constant parts; also called AB134_83
B13: P018.S.11.A.B05 (antibody, V domains shown)
VH: QSVEESGGRLVTPGTPLTLTCTVSGFSLSTYNVAWVRQAPGKGLQYIGIMAFDGNTYYASWATGRFTISRTSTTVNLKITSPTTEDTATYFCCKGDPSSDTGTTLWGQGTLVTVSS
VL: AAVLTQTPSSASEPVGGTVTIKCQSSPSVYSNNWLAWFQQKPGQRPKLLIYAAAKLASGVPSRFRGSGSGTQFTLTISDVQSDDAATYYCAGGFNSDSDTTFGGGTEVVVK
notes: V regions on human Ig constant parts; also called AB134_26
B14: P018.S.08.A.B03 (antibody, V domains shown)
VH: QSVEESGGRLVTPGTPLTLTCTVSGFSLSRYAITWVRQAPGKGLEWIGIISSSGTTYYASWAKGRFTISKTSTTVDLKITSPTTEDTAIYFCARAIAGDAGYVYAIDWLDLWGQGTLVTVSS
VL: DPVLTQTPSSASEPVGGTVTIKCQASEYISNYLSWYQQKPGQPPKLLIFGASTLESGVPSRFSGSGSGTEFTLTISGVQSADAATYYCQGGYFSSSTTYVAFGGGTEVVVR
notes: V regions on human Ig constant parts; also called AB134_19
B15: P018.S.12.A.H04 (antibody, V domains shown)
VH: QSVEESGGRLVTPGTPLTLTCTASGFSLSDYYMSWVRQAPGKGLEWIGFMNSGGNAYYASWASGRFTISKTSTTVDLKITSPTTEDTATYFCVRDLSRFSLWGRGTLVIVSS
VL: AAVLTQTPSPVSAAVGGTVTINCQASPSVYSDYLSWFQQKPGQAPKLLIYWASTLTSGVPSRFSGSGSGTQFTLTISDVQSDDAATYYCAGGYSGNSDVWAFGGGTEVVVK
notes: V regions on human Ig constant parts; also called AB134_90
B16: P018.S.12.A.G02 (antibody, V domains shown)
VH: QSLEESGGRLVTPGTPLTLTCTASGFSLNMFYMIWVRQAPGKGLEWIGMIDSMGSAWYASWAKGRFTISKTSTAVALKITSPTTEDTATYFCARAINGDGAGDLWGQGTLVTVSS
VL: DVVMTQTPASVSAAVGGTVTINCRASEKIDSFLAWYQQKPGQPPKLLIYGASELAPGVPSRFSGSGSGTDYTLTISALESADAATYYCQSTADGSDYVGTFGGGTEVVVK
notes: V regions on human Ig constant parts; also called AB134_84

What follows are binders tested against T1, CD134 protein (His-tagged, Sino Biological Inc. 10481-H08H) (human, UniProt P43489 29-216) (assay: ELISA, coated His-tagged CD134).
T1 construct: bought protein coated on ELISA plates; also called OX40; TNFRSF4; not shown: His tag
T1 sequence (looked up): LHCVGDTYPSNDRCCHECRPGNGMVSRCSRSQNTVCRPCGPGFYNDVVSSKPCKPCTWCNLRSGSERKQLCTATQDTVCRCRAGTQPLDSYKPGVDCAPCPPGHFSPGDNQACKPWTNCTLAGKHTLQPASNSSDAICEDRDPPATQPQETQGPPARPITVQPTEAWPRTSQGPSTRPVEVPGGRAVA
Also: test concentration or dose not given here.

Binder | ELISA [abs. corr.]
B1 | 2.23
B2 | 2.21
B3 | 2.11
B4 | 1.89
B5 | 2.04
B6 | 1.85
B7 | 2.52
B8 | 1.31
B9 | 2.3
B10 | 0.744
B11 | 1.44
B12 | 1.56
B13 | 1.65
B14 | 2.66
B15 | 1.98
B16 | 2.33

The binders below were run against T2, CD134 expressed on the cell surface of HT1080_OX40 cells (human, UniProt P43489 29-277) (assay: cell-based or functional assay).
T2 sequence (looked up): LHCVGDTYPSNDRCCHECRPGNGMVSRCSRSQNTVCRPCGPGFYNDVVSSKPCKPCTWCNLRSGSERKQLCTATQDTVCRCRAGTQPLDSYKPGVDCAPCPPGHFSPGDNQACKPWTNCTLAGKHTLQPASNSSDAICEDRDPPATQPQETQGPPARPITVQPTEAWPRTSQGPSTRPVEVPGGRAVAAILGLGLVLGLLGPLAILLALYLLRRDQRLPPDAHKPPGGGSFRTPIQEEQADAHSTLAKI

Binder | Functional assay Cross-linked by F(ab′)2 fragment IL-8 [abs. corr.] | Functional assay IL-8 [abs. corr.]
B1 | 1.86 | 0.139
B2 | 1.97 | -0.167
B3 | 1.95 | 0.289
B4 | 1.83 | 0.43
B5 | 1.83 | 0.215
B6 | 1.94 | 0.38
B7 | 1.95 | 0.567
B8 | 1.83 | -0.194
B9 | 1.87 | 0.054
B10 | 1.97 | 0.019
B11 | 1.95 | 0.393
B12 | 1.86 | 1.33
B13 | 1.83 | 1.36
B14 | 1.94 | 0.709
B15 | 1.89 | -0.121
B16 | 1.81 | 0.212

What follows are binders tested against T2, CD134 expressed on the cell surface of … (assay: HT1080_OX40 cells, imaging).

Binder | Cellular binding assay [RFU]
B1 | 488
B2 | 560
B3 | 551
B4 | 523
B5 | 509
B6 | 522
B7 | 498
B8 | 416
B9 | 493
B10 | 130
B11 | 493
B12 | 526
B13 | 456
B14 | 477
B15 | 295
B16 | 530
